Experiment: DMAPP assay of site evaluation library (SEL) lysates with ELISA protein quantitation: specific activity ranked as performance index
Format: biochemical
Conditions: primary SEL screen; activity on DMAPP per unit weight relative to the parental molecule (parent = 1)
Protocol: 1. Prepared Patch Plates from Glycerol Stock Plates. Using a V&S 96 pin Replication Tool, cultures were patched onto a LB Agar 35 CMP/50 Kan large patch plates from overnight glycerol stock plates. Plates were incubated at 30° C. overnight for 20 to 24 hr. Cultures can be stored at 4° C. for up to a week.
2. Prepared Overnight Growth Plates. 500 mL of LB 35 CMP/50 Kan media were prepared. 300 μL/well of LB 35 CMP/50 Kan media were dispensed into deep 96 well plates (VWR). Using a V&S Replication Tool, the patch inoculum was transferred into deep 96 well plate by touching the tool pins to respective patch and using a circular motion to coat the pins with inoculum. The media was inoculated by dipping the tool then shaking the pin within the well. The overnight growth plates were sealed using a Breathe-Easier Sealing Membrane (Diversified Biotech). The plates were incubated in a Vertiga Shaking Incubator at 30° C. with shaking at 800 rpm overnight for 16 to 18 hr.
3. Prepared Day Growth Plate. Deep 96 well plates were prepared by dispensing 588 μL/well of LB 35 CMP/50 Kan media. Overnight growth plates were removed from the incubator. Overnight cultures were diluted 50-fold and 12 μL of overnight culture were transferred to day growth plates containing 588 μL/well of LB media containing antiobiotics. Overnight growth plates were sealed with new Breathe-Easier Sealing Membranes. Cultures were incubated at 30° C. and 800 rpm for 2.5 hr. Frozen 12 mM IPTG (Sigma) vials were removed from −20° C. and placed in a hood to thaw.
4. OD600 Plate Read of Overnight, Induction, and Harvest. 150 μL 1×PBS were dispensed into 96 well Costar Read Plates (#9017). 50 μL of culture samples were transferred to Read Plates. The OD600 reading was recorded using a Spectramax Plate Reader (Molecular Devices).
5. Induction. Electronic multi-channel pipettors were prepared to dispense 4×20 μL/well of IPTG (if 4× replicates). The multi-dispense option in the electronic pipettor was adjusted if more replicates was necessary. Thawed 12 mM IPTG was poured into 50 mL or 100 mL sterile reservoirs. 20 μL/well of IPTG into each 600 μL/well culture. Overnight growth plates were resealed. Cultures were incubated at 30° C. and 800 rpm for 4 hr. OD600 readings of plates were recorded according instructions above.
6. Harvest. 400 μL of induced culture were transferred to 800 μL Grenier storage plates. Plates were centrifuged at 3300 rpm for 20 min at 2° to 8° C. in a low speed benchtop centrifuge. Supernatants were discarded, pellets should stay in the conical bottom well. Residual supernatants were slapped out onto a paper towel on the benchtop. Plates were sealed with an aluminum foil membrane (Beckman-Coulter). Plates were covered with a plastic plate lid if available. Storage plates were labeled accordingly and stored frozen at −80° C.
Plates containing induced cell pellets were removed from the −80° C. freezer and allowed to thaw on the benchtop for 30 minutes prior to lysis. 200 μl of lysis buffer (50 mM Tris pH 8, 25 mM MgCl2, 74 μg/ml DNase I, 250 U/ml lysozyme, 0.1% Tween 20, 0.5 mM PMSF) was added to each pellet, and plates were incubated on an Eppendorf Thermomixer at 25° C. for 30 minutes at 1200 rpm. After lysis, plates were centrifuged at 3450 rpm for 15 minutes at 4° C. Supernatants were then removed and diluted 10-fold prior to DMAPP assay. 80 μl of the diluted supernatant was added to 20 μl of the DMAPP working stock (20 mM DMAPP in 0.1 M Phosphate Buffer pH 8.2, DMAPP triammonium salt, Cayman chemicals) in a Zinsser glass block. Blocks were then sealed with aluminum sealing membranes, and incubated in Thermomixers at 25° C. for 30 minutes at 450 rpm. Reactions were stopped by incubating blocks on Thermomixers at 70° C. for 12 minutes at 450 rpm. GC-MS was then used for headspace measurements to calculate the amount of isoprene produced by each lysates.
Headspace Assay. […]

B1: H515H: SEL member with the wild type residue at site 515 (wild type codon substituted) (protein, UniProt Q50L36 38-595, looked up)
Isoprene synthase, …: CSVSTENVSFTETETEARRSANYEPNSWDYDYLLSSDTDESIEVYKDKAKKLEAEVRREINNEKAEFLTLLELIDNVQRLGLGYRFESDIRGALDRFVSSGGFDAVTKTSLHGTALSFRLLRQHGFEVSQEAFSGFKDQNGNFLENLKEDIKAILSLYEASFLALEGENILDEAKVFAISHLKELSEEKIGKELAEQVNHALELPLHRRTQRLEAVWSIEAYRKKEDANQVLLELAILDYNMIQSVYQRDLRETSRWWRRVGLATKLHFARDRLIESFYWAVGVAFEPQYSDCRNSVAKMFSFVTIIDDIYDVYGTLDELELFTDAVERWDVNAINDLPDYMKLCFLALYNTINEIAYDNLKDKGENILPYLTKAWADLCNAFLQEAKWLYNKSTPTFDDYFGNAWKSSSGPLQLVFAYFAVVQNIKKEEIENLQKYHDTISRPSHIFRLCNDLASASAEIARGETANSVSCYMRTKGISEELATESVMNLIDETWKKMNKEKLGGSLFAKPFVETAINLARQSHCTYHNGDAHTSPDELTRKRVLSVITEPILPFER
Question: With B1 as the molecule, how does the performance index read?
Answer: Its performance index is 0.81.

B2: D345I: P. alba IspS variant (protein, UniProt Q50L36 38-595, looked up, variant D345I)
Isoprene synthase, …: CSVSTENVSFTETETEARRSANYEPNSWDYDYLLSSDTDESIEVYKDKAKKLEAEVRREINNEKAEFLTLLELIDNVQRLGLGYRFESDIRGALDRFVSSGGFDAVTKTSLHGTALSFRLLRQHGFEVSQEAFSGFKDQNGNFLENLKEDIKAILSLYEASFLALEGENILDEAKVFAISHLKELSEEKIGKELAEQVNHALELPLHRRTQRLEAVWSIEAYRKKEDANQVLLELAILDYNMIQSVYQRDLRETSRWWRRVGLATKLHFARDRLIESFYWAVGVAFEPQYSDCRNSVAKMFSFVTIIIDIYDVYGTLDELELFTDAVERWDVNAINDLPDYMKLCFLALYNTINEIAYDNLKDKGENILPYLTKAWADLCNAFLQEAKWLYNKSTPTFDDYFGNAWKSSSGPLQLVFAYFAVVQNIKKEEIENLQKYHDTISRPSHIFRLCNDLASASAEIARGETANSVSCYMRTKGISEELATESVMNLIDETWKKMNKEKLGGSLFAKPFVETAINLARQSHCTYHNGDAHTSPDELTRKRVLSVITEPILPFER
Question: With B2 as the molecule, how does the performance index read?
Answer: Its performance index is 0.73.

B3: D345E: P. alba IspS variant (protein, UniProt Q50L36 38-595, looked up, variant D345E)
Isoprene synthase, …: CSVSTENVSFTETETEARRSANYEPNSWDYDYLLSSDTDESIEVYKDKAKKLEAEVRREINNEKAEFLTLLELIDNVQRLGLGYRFESDIRGALDRFVSSGGFDAVTKTSLHGTALSFRLLRQHGFEVSQEAFSGFKDQNGNFLENLKEDIKAILSLYEASFLALEGENILDEAKVFAISHLKELSEEKIGKELAEQVNHALELPLHRRTQRLEAVWSIEAYRKKEDANQVLLELAILDYNMIQSVYQRDLRETSRWWRRVGLATKLHFARDRLIESFYWAVGVAFEPQYSDCRNSVAKMFSFVTIIEDIYDVYGTLDELELFTDAVERWDVNAINDLPDYMKLCFLALYNTINEIAYDNLKDKGENILPYLTKAWADLCNAFLQEAKWLYNKSTPTFDDYFGNAWKSSSGPLQLVFAYFAVVQNIKKEEIENLQKYHDTISRPSHIFRLCNDLASASAEIARGETANSVSCYMRTKGISEELATESVMNLIDETWKKMNKEKLGGSLFAKPFVETAINLARQSHCTYHNGDAHTSPDELTRKRVLSVITEPILPFER
Question: With B3 as the molecule, how does the performance index read?
Answer: Its performance index is 0.61.

B4: D345Y: P. alba IspS variant (protein, UniProt Q50L36 38-595, looked up, variant D345Y)
Isoprene synthase, …: CSVSTENVSFTETETEARRSANYEPNSWDYDYLLSSDTDESIEVYKDKAKKLEAEVRREINNEKAEFLTLLELIDNVQRLGLGYRFESDIRGALDRFVSSGGFDAVTKTSLHGTALSFRLLRQHGFEVSQEAFSGFKDQNGNFLENLKEDIKAILSLYEASFLALEGENILDEAKVFAISHLKELSEEKIGKELAEQVNHALELPLHRRTQRLEAVWSIEAYRKKEDANQVLLELAILDYNMIQSVYQRDLRETSRWWRRVGLATKLHFARDRLIESFYWAVGVAFEPQYSDCRNSVAKMFSFVTIIYDIYDVYGTLDELELFTDAVERWDVNAINDLPDYMKLCFLALYNTINEIAYDNLKDKGENILPYLTKAWADLCNAFLQEAKWLYNKSTPTFDDYFGNAWKSSSGPLQLVFAYFAVVQNIKKEEIENLQKYHDTISRPSHIFRLCNDLASASAEIARGETANSVSCYMRTKGISEELATESVMNLIDETWKKMNKEKLGGSLFAKPFVETAINLARQSHCTYHNGDAHTSPDELTRKRVLSVITEPILPFER
Question: Which performance index does the source give for B4 here?
Answer: Its performance index is 0.84.

B5: D345L: P. alba IspS variant (protein, UniProt Q50L36 38-595, looked up, variant D345L)
Isoprene synthase, …: CSVSTENVSFTETETEARRSANYEPNSWDYDYLLSSDTDESIEVYKDKAKKLEAEVRREINNEKAEFLTLLELIDNVQRLGLGYRFESDIRGALDRFVSSGGFDAVTKTSLHGTALSFRLLRQHGFEVSQEAFSGFKDQNGNFLENLKEDIKAILSLYEASFLALEGENILDEAKVFAISHLKELSEEKIGKELAEQVNHALELPLHRRTQRLEAVWSIEAYRKKEDANQVLLELAILDYNMIQSVYQRDLRETSRWWRRVGLATKLHFARDRLIESFYWAVGVAFEPQYSDCRNSVAKMFSFVTIILDIYDVYGTLDELELFTDAVERWDVNAINDLPDYMKLCFLALYNTINEIAYDNLKDKGENILPYLTKAWADLCNAFLQEAKWLYNKSTPTFDDYFGNAWKSSSGPLQLVFAYFAVVQNIKKEEIENLQKYHDTISRPSHIFRLCNDLASASAEIARGETANSVSCYMRTKGISEELATESVMNLIDETWKKMNKEKLGGSLFAKPFVETAINLARQSHCTYHNGDAHTSPDELTRKRVLSVITEPILPFER
Question: Which performance index does the source give for B5 here?
Answer: Its performance index is 0.65.

B6: D345N: P. alba IspS variant (protein, UniProt Q50L36 38-595, looked up, variant D345N)
Isoprene synthase, …: CSVSTENVSFTETETEARRSANYEPNSWDYDYLLSSDTDESIEVYKDKAKKLEAEVRREINNEKAEFLTLLELIDNVQRLGLGYRFESDIRGALDRFVSSGGFDAVTKTSLHGTALSFRLLRQHGFEVSQEAFSGFKDQNGNFLENLKEDIKAILSLYEASFLALEGENILDEAKVFAISHLKELSEEKIGKELAEQVNHALELPLHRRTQRLEAVWSIEAYRKKEDANQVLLELAILDYNMIQSVYQRDLRETSRWWRRVGLATKLHFARDRLIESFYWAVGVAFEPQYSDCRNSVAKMFSFVTIINDIYDVYGTLDELELFTDAVERWDVNAINDLPDYMKLCFLALYNTINEIAYDNLKDKGENILPYLTKAWADLCNAFLQEAKWLYNKSTPTFDDYFGNAWKSSSGPLQLVFAYFAVVQNIKKEEIENLQKYHDTISRPSHIFRLCNDLASASAEIARGETANSVSCYMRTKGISEELATESVMNLIDETWKKMNKEKLGGSLFAKPFVETAINLARQSHCTYHNGDAHTSPDELTRKRVLSVITEPILPFER
Question: For B6, which performance index is on record?
Answer: The performance index was 0.58.

B7: D345K: P. alba IspS variant (protein, UniProt Q50L36 38-595, looked up, variant D345K)
Isoprene synthase, …: CSVSTENVSFTETETEARRSANYEPNSWDYDYLLSSDTDESIEVYKDKAKKLEAEVRREINNEKAEFLTLLELIDNVQRLGLGYRFESDIRGALDRFVSSGGFDAVTKTSLHGTALSFRLLRQHGFEVSQEAFSGFKDQNGNFLENLKEDIKAILSLYEASFLALEGENILDEAKVFAISHLKELSEEKIGKELAEQVNHALELPLHRRTQRLEAVWSIEAYRKKEDANQVLLELAILDYNMIQSVYQRDLRETSRWWRRVGLATKLHFARDRLIESFYWAVGVAFEPQYSDCRNSVAKMFSFVTIIKDIYDVYGTLDELELFTDAVERWDVNAINDLPDYMKLCFLALYNTINEIAYDNLKDKGENILPYLTKAWADLCNAFLQEAKWLYNKSTPTFDDYFGNAWKSSSGPLQLVFAYFAVVQNIKKEEIENLQKYHDTISRPSHIFRLCNDLASASAEIARGETANSVSCYMRTKGISEELATESVMNLIDETWKKMNKEKLGGSLFAKPFVETAINLARQSHCTYHNGDAHTSPDELTRKRVLSVITEPILPFER
Question: With B7 as the molecule, how does the performance index read?
Answer: Its performance index is 0.69.
